# Measured values from publication PMC10873324, “High-throughput screening assay for PARP-HPF1 interaction inhibitors to affect DNA damage repair” (Scientific Reports, 2024).
# T1: YFP-HPF1 (mCitrine fused to the N-terminus of full length HPF1) (UniProt Q9NWY4 1-346)
# T1 construct: Histone PARylation Factor 1 (HPF1), full length; The methods print 'His6 tag- CFP-TEV protease site followed by full length HPF1' for the YFP-tagged HPF1; This is probably a slip for YFP, since the vector is pNIC-YFP; also called Histone PARylation Factor; source: E. coli BL21(DE3), purified (Ni-NTA IMAC, SEC); not shown: mCitrine (YFP), N-terminal, kept
# T1 sequence (looked up): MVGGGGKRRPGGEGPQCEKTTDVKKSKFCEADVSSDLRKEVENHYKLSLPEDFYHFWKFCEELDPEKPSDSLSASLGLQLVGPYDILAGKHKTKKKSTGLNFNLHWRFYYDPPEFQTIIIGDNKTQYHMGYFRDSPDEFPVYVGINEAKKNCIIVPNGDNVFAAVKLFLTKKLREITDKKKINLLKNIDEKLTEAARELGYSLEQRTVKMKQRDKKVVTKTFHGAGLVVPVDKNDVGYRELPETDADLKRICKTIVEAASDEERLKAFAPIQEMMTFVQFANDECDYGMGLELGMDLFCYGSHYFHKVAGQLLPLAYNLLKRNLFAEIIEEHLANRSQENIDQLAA
# B1: CFP-PARP2 (mCerulean fused to the N-terminus of the PARP2 ART domain) (domain or fragment, human, UniProt Q9UGN5-1 356-583, looked up)
# chain: HPLDQHYRNLHCALRPLDHESYEFKVISQYLQSTHAPTHSDYTMTLLDLFEVEKDGEKEAFREDLHNRMLLWHGSRMSNWVGILSHGLRIAPPEAPITGYMFGKGIYFADMSSKSANYCFASRLKNTGLLLLSEVALGQCNELLEANPKAEGLLQGKHSTKGLGKMAPSSAHFVTLNGSTVPLGPASDTGILNPDGYTLNYNEYIVYNPNQVRMRYLLKVQFNFLQLW
# notes: Construct order: His6 tag-CFP-TEV protease site-ART domain; source: E. coli BL21(DE3), purified (Ni-NTA IMAC, SEC); not shown: mCerulean (CFP), N-terminal, kept
# Experiments:
# PARP1 = molecular target: T2, PARP1 (Homo sapiens, UniProt P09874, DEL678-787); test: biochemical; type: binding
# T2 construct: PARP1 ART fragment [T661-F676 + GSGSGSGG + (D788-W1014)], CFP-fused; with HPF1
# PARP2 [1] = molecular target: T3, PARP2 (Homo sapiens, UniProt Q9UGN5); test: FRET PARP2-HPF1 interaction inhibition (olaparib present); nanoDSF shift of the PARP2 ART domain ([…] to […] °C), none for HPF1; type: binding; parameters: PARP2 ART domain (CFP-fused in FRET); with HPF1
# PARP2 [2] = molecular target: T3, PARP2; settings: cited from earlier work
# PARP1 ART (Homo sapiens) = PARP1 ART (Homo sapiens) (UniProt P09874); settings: cited from earlier work
# [3] = molecular target: T1, YFP-HPF1 (mCitrine fused to the …); test: FRET or BRET; in solution; constant 400 nM CFP-PARP2 mixed with YFP-HPF1 250 nM to 10.5 µM, first mixed at high concentration in presence of Olaparib, salt backfilled; EmFRET by the method of Song et al.; 10 µl, 384-well plates, 4 replicates, 3 independent experiments; settings: both partners purified
# [4] = molecular target: B1; test: FRET or BRET; competition of the FRET pair (CFP-PARP2, YFP-HPF1) with desalted (buffer-exchanged) unlabeled HPF1; rFRET read-out; HPF1 aggregated at high concentrations without salt; settings: both partners purified
# [5] = molecular target: B1; test: FRET or BRET; competition of the FRET pair (400 nM CFP-PARP2, 800 nM YFP-HPF1) with increasing unlabeled HPF1 whose stock adds salt; rFRET read-out; apparent IC50; 20 µl, 384-well plates, 4 replicates; settings: both partners purified
# T2 sequence (P09874 788-1014, stated change not applied, other chains not shown): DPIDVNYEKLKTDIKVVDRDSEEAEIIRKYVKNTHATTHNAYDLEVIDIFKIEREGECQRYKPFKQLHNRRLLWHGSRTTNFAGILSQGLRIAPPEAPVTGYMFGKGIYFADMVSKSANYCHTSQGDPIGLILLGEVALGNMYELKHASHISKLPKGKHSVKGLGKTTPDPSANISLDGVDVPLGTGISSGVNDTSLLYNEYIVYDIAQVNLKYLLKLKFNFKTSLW
# PARP1 ART (Homo sapiens), sequence (P09874 788-1014): as the sequence (P09874 788-1014, stated change not applied, other chains not shown) above
molecule,measurement,setting,value
CC(C)=CC[C@H](O)C1=CC(=O)c2c(O)ccc(O)c2C1=O [Alkannin],IC50,PARP1,16.2 µM
same,IC50,PARP2 [1],21.2 µM
CC(C)=CC[C@@H](OC(=O)C=C(C)C)C1=CC(=O)c2c(O)ccc(O)c2C1=O [Dimethylacrylshikonin],IC50,PARP1,29.3 µM
same,IC50,PARP2 [1],15.7 µM
HPF1 (from UniProt Q9NWY4),Kd,PARP2 [2],3 µM
same,Kd,PARP1 ART (Homo sapiens),1.5 µM
B1,Kd,[3],2 ± 0.18 µM
"unlabeled HPF1 (full length) (natural protein, UniProt Q9NWY4 1-346, looked up, Histone PARylation Factor 1 (HPF1), full length, without fluorescent protein; also called unlabelled full length HPF1; desalted unlabeled HPF1) MVGGGGKRRPGGEGPQCEKTTDVKKSKFCEADVSSDLRKEVENHYKLSLPEDFYHFWKFCEELDPEKPSDSLSASLGLQLVGPYDILAGKHKTKKKSTGLNFNLHWRFYYDPPEFQTIIIGDNKTQYHMGYFRDSPDEFPVYVGINEAKKNCIIVPNGDNVFAAVKLFLTKKLREITDKKKINLLKNIDEKLTEAARELGYSLEQRTVKMKQRDKKVVTKTFHGAGLVVPVDKNDVGYRELPETDADLKRICKTIVEAASDEERLKAFAPIQEMMTFVQFANDECDYGMGLELGMDLFCYGSHYFHKVAGQLLPLAYNLLKRNLFAEIIEEHLANRSQENIDQLAA",IC50,[4],24 µM
same,IC50,[5],1.5 µM
